Laboratory results from patent US6518404B1, “Human endothelin-bombesin receptor antibodies” (priority 1994, dated 2003).
Square brackets hold non-standard residues; d marks the D form. Peptide text beside a SMILES is read from it.

Experiments:
[1] = biological target: T1, ETBR (endothelin-bombesin receptor) expressed in Xenopus oocytes (Homo sapiens, UniProt O15354); experiment: Xenopus oocyte assay to identify ligand (voltage-clamp, calcium activated chloride channel activity); type: cell-based; details: for Cl- current response upon addition of ligand: 10 nM ligand, oocytes injected with RNA from ATCC #75823, clamped at -60 mV; for mean peak ± S.E. peak current response (chloride current): oocytes injected with pHHPEC49 derived RNA transcripts, n=75
T1 construct: expressed in transfected cells; host or cells: Xenopus oocytes microinjected with in vitro transcribed RNA
T1 sequence (O15354 27-613): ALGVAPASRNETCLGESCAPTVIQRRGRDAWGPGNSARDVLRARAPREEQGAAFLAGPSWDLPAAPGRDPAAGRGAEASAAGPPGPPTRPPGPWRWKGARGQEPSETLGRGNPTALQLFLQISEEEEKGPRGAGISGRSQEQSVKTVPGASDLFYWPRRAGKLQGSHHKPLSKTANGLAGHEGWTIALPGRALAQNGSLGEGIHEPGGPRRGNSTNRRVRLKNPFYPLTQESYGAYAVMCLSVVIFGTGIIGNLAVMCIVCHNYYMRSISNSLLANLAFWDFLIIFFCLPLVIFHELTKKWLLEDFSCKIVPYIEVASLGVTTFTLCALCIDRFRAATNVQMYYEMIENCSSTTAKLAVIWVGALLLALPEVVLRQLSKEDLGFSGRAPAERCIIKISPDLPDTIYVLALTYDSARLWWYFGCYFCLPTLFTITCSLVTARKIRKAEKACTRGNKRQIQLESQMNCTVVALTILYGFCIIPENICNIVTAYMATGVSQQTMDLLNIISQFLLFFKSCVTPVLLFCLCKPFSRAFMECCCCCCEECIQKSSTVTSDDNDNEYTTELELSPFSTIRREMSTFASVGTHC
Description: Arrow indicates ET1 addition. […] The mean peak ± S.E. peak current response to ET1 is 150±50 (n=75), ET2 156±55 (n=75) and Bombesin 148±47 (n=75).
(§1) RNA was synthesized in vitro from linearized DNA, ATCC #75823, using an RNA transcription kit. This RNA was microinjected into Xenopus oocytes (10 ng of RNA/occytes). The oocytes were manually defolliculated prior to microinjection to remove any endogenous receptors that might be present in the follicular membranes. The injected oocytes were maintained in modified Barth's medium at 18° C. for 48 hours to allow for receptor protein expression. Electrophysiology was performed using the voltage-clamp technique. Oocytes were clamped at −60 mV and the calcium activated chloride channel activity was recorded in Barth's medium at room temperature. Data were analyzed using Axotape software.
(§2) The ET1 and ET3 mediated response was blocked by the ET receptor peptide antagonist BQ123. […] Since it responds to both ET and Bombesin it represents a novel endothelin-bombesin receptor.

uninjected oocytes = experiment: Uninjected Xenopus oocytes (control for endogenous response); type: cell-based; details: uninjected oocytes (data not shown)
Description: as §1, §2

Row | Compound | Cl- current response upon addition of ligand [1] | mean peak ± S.E. peak current response (chloride current) [1] [nanoamps] | change in membrane potential upon addition of ligand (uninjected oocytes) | effect on ET1 and ET3 mediated response ([1]; oocytes injected with RNA from ATCC #75823)
1 | endothelin-1 [ET1] | fairly strong Cl^− currents | 150±50 | did not elicit any change in membrane potential | 
2 | CC(C)C[C@@H]1NC(=O)[C@@H](C(C)C)NC(=O)[C@@H]2CCCN2C(=O)[C@@H](CC(=O)O)NC(=O)[C@@H](Cc2c[nH]c3ccccc23)NC1=O [BQ123] (cyclo(L[dW][dD]P[dV])) |  |  |  | blocked
3 | AII: related peptide ligand (DRVYIHPF) | did not illicit any response |  |  | 
4 | endothelin-2 (CSCSSWLDKECVYFCHLDIIW) [ET2, member of the endothelin peptide family] |  | 156±55 |  | 
5 | Neuropeptide Y | did not illicit any response |  |  | 
6 | endothelin-3 [ET3] | fairly strong Cl^− currents |  | did not elicit any change in membrane potential | 
